Test results as given in the DeepSol protein solubility set.

Experiment: soluble on expression in E. coli; label from the status in PepcDB or PDB records
With “MKGKKVLITSGGCLEKWDQVRGHTNMAKGTIGRIIAEELLAKGAHVIYLHGYFAEKPSDVHRGLELHPFEGIVDLQDKMKSIISHEKVDAVIMAAAGSDWIVEKICDQDGNVLNMNGKISSDIAPIIHFQKAPKVLKQIKEWDPETVLVGFKLESDLNEEELFERAKNRMKEARANVMIANSPHSLYSRGAVHYVIGQDGKGKLCNGKDETAKEIVKSLEVLCNRVTAF” the “soluble on expression in E. coli” value was “not soluble”. With “MGSDKIHHHHHHMKQNVLLQSILIQLNLLKENYSEDTIKNLMDIPKQLTSNTSYKRNVKEVSHVHIAFDDSTAGCLKHMLGQEERLEEMVVAFSEFFSIGPINKLHMNEGQLARKEWLVNNLTSYDCYFEEEYLPRFKETLEVLHSIPNETPITIWKADNAHEHVGLCFVMAQLKDKKNIRVMNTSEASKEILKLEYVIRGTGELPPENLALIQKSFVKLPYLTVENRMQFEHEWDSLSKSTEFLRIWTDNAVRSVQENYFDQFIIECAKSIGADQEFRKAPRVIGEALGLVEQSVGDTFLEYRLKELIKQEVFEFEGSLDEMRFYSVKLRK” the “soluble on expression in E. coli” value was “not soluble”. For “MIILEKEQKEPNRLIKEKSPYLLQHAYNPVDWYPWGEEAFEKARKENKPVFLSIGYSTCHWCHMMAHESFEDEEVAGLMNEAFVSIKVDREERPDIDNIYMTVCQIILGRGGWPLNIIMTPGKKPFFAGTYIPKNTRFNQIGMLELVPRIKEIWEQQHEEVLDSAEKI”, the “soluble on expression in E. coli” value was “not soluble”. In the case of “MKKVELLAPAGNLEKLKMAVLYGADAVYLGGEEFSLRAYAENFTLDELKAGVEFAHSKGKKVYVTINIFPHNDDLKKIPEYIKEVAGIGVDAIILSDPGILSIVKEIAPDMEIHLSTQANNTNFMSARFWHNHGVKRIILARELSLEEIREIREKTPDSLELEVFVHGAMCISYSGRCLLSNYMAGRDSNRGLCAHPCRWKYYLMEEKRPGEYYPVYENERGTFIFNSRDLCMIEHIPELVESGVSSFKIEGRMKSSFYVATVVKAYREAIDAYYEDKDNYKFDPRLLEEVCKVSHREFTTGFFFNKPGPKDQIYATSSYIREYDFVGVVQKYDKATKIATVEQRNRMYKGEEIEVVNPKGNFFVQKIEWMKNADGEDIDVAPHPQMTVYMPMKEDVEEFAMLRRKSSPNK”, the “soluble on expression in E. coli” value is reported as “soluble”. In the case of “MGSDKIHHHHHHVPVSQLPSQPTDNNSSAATDVTPVVALKELVARLHREQNKIQDLLSSLGFALRSFNNLNQFLELIPLMATRVTDADGSALFLYKPNGQVRLEQLHWQDSGQRKNIRKALEIASSQITLLPNAAPLANATGILDDQMHRYLGPDVQIFGTAILVKHTERGWLYVLSRDPEYSWTETRQKLVRLVADQTAVAIENDELAVELRKKERLDQELEIGAEIQRRLLPRQCPTIPGAVLAARCKPANRVGGDYYDFIATNQNKIRSKTKGDTETGRWGLVIGDVMGKGVPAGLIMTMMRGMLRGEVLHGNSPAKILQNLNRVMYADLENSHRFVTLFYSEYNPHSRILSYSNAAHNPPLWWHAATKTVSRLDTLGMLIGLDANSQYEDAQVQLEPGDTIIYYTDGLTDAAAAGGDRFDEDNFVAGFNTACKYCNGPEEIVDYLFDQVQQFIGDDKQNTDDMTLVVLQIL”, the “soluble on expression in E. coli” value is reported as “not soluble”. With “MGSDKIHHHHHHMKSKIYILLLFLIFLSACANTRHSESDKNVLTVYSPYQSNLIRPILNEFEKQEHVKIEIKHGSTQVLLSNLHNEDFSERGDVFMGGVLSETIDHPEDFVPYQDTSVTQQLEDYRSNNKYVTSFLLMPTVIVVNSDLQGDIKIRGYQDLLQPILKGKIAYSNPNTTTTGYQHMRAIYSMHHRVSDVHQFQNHAMQLSKTSKVIEDVAKGKYYAGLSYEQDARTWKNKGYPVSIVYPIEGTMLNVDGIALVKNAHPHPKRKKLVQYLTSRSVQQRLVAEFDAKSIRKDVSEQSDQSIENLKNIPLIPKSKLPDIPHHKFLEMIQ” the “soluble on expression in E. coli” value was “not soluble”. With “LSYHVIGPLRELTSTARRLGRGELDARVTYSGEDELAQLGERFNQMAGELKSIYGDLEERVEDKTRALSQSHQRLELLYASARRLGENPYDSRTLQPLLNQLEKVLDAGRVTLCLNKDGVERAYSSLTTTERPADFCLQGDCGSCREQASACDQPSSLAQPLLMQPLSIAGHRFGELFIESRSGRLENWQQQLIETFCDNIARTFALSLQQEQESRLALFAERGTIARELHDSLAQSLSYLKIQVSRLGTLLKREAPAEKIEDTLDELREGLNGAYRQLRELLTTFRLSLDEPSLEAALGNAVAEFGERGEVTIELDNRLQHVPLSPNEEIHVLQIVREALSNVVRHSQAQRAWVRLSSQADGQVSIAVEDDGVGFDPQQNRSGHYGLTIMQERGQTLGSQLRFEARAPHGTRVLFSFVPTALQP” the “soluble on expression in E. coli” value was “not soluble”. For “MNIDSDIFKIQSNNVLPSRGKILISEPFLRDATFGRSVVLLIDHTEEGSMGLIINKQLPIFVNDIIKEFKYIENIPLYKGGPIATDTLFYLHTLADIPGAIPISKGLYLNGDFDEIKKYILQGNKVDRYIRFFLGYSGWESEQLSTELKENTWLVSKEENAYLMNGDTKDMWKQALEKLGSKYETWSRFPQVPTFN”, the “soluble on expression in E. coli” value was “not soluble”. For “ASTLGFKARIHMSHDATDWKINKLLQNGVEVKIYDDNFSNAVAAARVSSQRDPYSYFIDDEGSKLLFAGYATAGERVKKQLSKMQIEVSKEHPLVVYLPAGVGGSPSGVAFGLKLQFADAVIPIFVEPTHMPSVLLGMASGLNHDISVYDIGIDGKTAADGLAVGRPSMIAGKYMKDKLFGIATVSDSDMFAYQGMLKKLENIEVEPSAAVGIRGLIQSKEISEIPDSATHMVWATGGSMVPKNTMHKYEDKAVRIFNTWKS”, the “soluble on expression in E. coli” value was “not soluble”. For “MLFTIEQLELIKKLQHTGMSSDQLLKAFGELEVPEQLQNNNTIAAALYSPLLVQHLTTPKSETPVKLTVQTVPTPVKSEPQSSNCSSPFEHPICSNAPRPIRSQRTPMKEITTLDDPNELEEFMKQGEEACILDMKTFITQYSLRQTTVAMMTGVSQPYISKLLNGNHRELSLRCRKNIYCWYLNCRRHPNKLAAFLADPTTRLETNGDGELIPQRRERYVFRPILIRMLESFFTQTPFPDLPRRVEIANACNHVLKMDKKGVGLMPKEVVSPQVVSNWFANKRKELRRRSAEASAASTSSASSSASSTANHDSVSVSSMSPRDEETSSRNTTPETAISPSPAVSTFEVSRPSAIISATSSTTSPISIPATIIPSVSPSALELFAMAQQLGVQLPVPFPTLPTHFFPFQMAPFYGNPASILKSE”, the “soluble on expression in E. coli” value was “not soluble”. In the case of “MSLRVKYFGTDGIRGIFGETLTDELAFKVGKALGEIVGEGKVIVGKDTRVSGDSLEAAISAGLTSMGVDVLLCGILPTPAVALLTRITRSFGVVISASHNPPEYNGIKVLKGGYKIPDEMEAEIEKRLENGSFLTRSVVGRTKSFREGRDMYIGAVLEMFRDLDLTGEMVSLDLANGATTTTAREVFEFLGAKVEVFNDSQDGLLINQGCGATHPRFLAEEMKNGKVGFTFDGDGDRVIAVDEERNVVNGDRIIGILAVGLKEEGRLNSDTVVGTVMTNGGLEDFLKEKGIRLLRTKVGDKYVLEKMLESGANLGGERSGHIIILDRSTTGDGLITALELMRVLKRSGRKLSDFAKEIPDYPQITKNVRRTERMSLENENLRKIVEESTSRGYRVVIRPSGTEPVIRITVEGKDREEIEKIVEEISRVLESEGHHHHHH”, the “soluble on expression in E. coli” value is reported as “soluble”. With “MVGIHQEVWLEVDLEFTKKMKIPVVRRDLGGGTVVITPGEHDYFIVVRQEDAPRNPSELYKKFLTPIVNVLRSYGLKADLRDQDIVVNGKKISGNGAMTHGNSIVIAGNILLSLDIDL” the “soluble on expression in E. coli” value was “soluble”. For “MLINEYRPGAGIGWHRDKPHFEDVAGISLLAPCSFRLRRKSGDRWERRTIVVEPRSAYLMTGPSRTEWEHSIPPLAEHRYSITLRTLRSQNPLEHHHHHH”, the “soluble on expression in E. coli” value was “not soluble”.
